{"source": "paper PMC10662374", "about": "“Structures of the interleukin 11 signalling complex reveal gp130 dynamics and the inhibitory mechanism of a cytokine variant” (Nature Communications, 2023)", "key": {"[1]": {"target": "IL-11_(Δ10/PAIDY)/IL-11Rα_(D1-D3) binary complex (human) (UniProt P20809)", "experiment": "ITC; gp130 in the syringe titrated against the cytokine/IL-11Rα_(D1-D3) complex formed in the cell, 288 K, TBS pH 8.5, 1:1 interaction model, n = 3"}, "[2]": {"target": "IL-11_(Δ10/W147A)/IL-11Rα_(D1-D3) binary complex (human) (UniProt P20809)", "experiment": "ITC; gp130 in the syringe titrated against the cytokine/IL-11Rα_(D1-D3) complex formed in the cell, 288 K, TBS pH 8.5, 1:1 interaction model, n = 3"}, "[3]": {"target": "T1, IL-11Δ10/IL-11Rα_(D1-D3) binary complex (human, UniProt P20809 32-199; Q14626 23-319)", "T1 construct": "IL-11, human, IL-11Δ10, as m1; numbers count on: the mature protein; IL-11Rα, human, D1-D3, as m8; m1 with m8; also called IL-11Rα_(D1-D3)/IL-11Δ10 binary complex; binary IL-11/IL-11Rα complex; source: formed from the purified proteins (IL-11Δ10 from E. coli, IL-11Rα_(D1-D3) from Sf21); in ITC by titrating the cytokine into IL-11Rα; not shown: His6, N-terminal, cleaved; His8, N-terminal, cleaved; …", "T1 sequence 1": "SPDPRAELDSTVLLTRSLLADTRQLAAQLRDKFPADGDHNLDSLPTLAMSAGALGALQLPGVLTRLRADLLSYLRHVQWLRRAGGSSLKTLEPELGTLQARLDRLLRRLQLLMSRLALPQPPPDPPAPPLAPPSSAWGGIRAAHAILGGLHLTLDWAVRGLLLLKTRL", "T1 sequence 2": "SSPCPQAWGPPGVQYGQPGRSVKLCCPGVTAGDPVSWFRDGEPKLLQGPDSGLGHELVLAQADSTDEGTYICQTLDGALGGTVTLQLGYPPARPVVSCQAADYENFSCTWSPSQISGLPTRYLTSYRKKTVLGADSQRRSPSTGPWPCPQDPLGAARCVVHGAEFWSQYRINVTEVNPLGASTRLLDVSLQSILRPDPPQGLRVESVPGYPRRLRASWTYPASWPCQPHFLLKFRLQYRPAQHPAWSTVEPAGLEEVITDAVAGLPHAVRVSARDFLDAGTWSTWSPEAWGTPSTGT", "experiment": "ITC; gp130 in the syringe titrated against the cytokine/IL-11Rα_(D1-D3) complex formed in the cell, 288 K, TBS pH 8.5, 1:1 interaction model, n = 3"}, "[4]": {"target": "T2, IL-11Ralpha D1-D3 (Homo sapiens, UniProt Q14626)", "T2 chain": "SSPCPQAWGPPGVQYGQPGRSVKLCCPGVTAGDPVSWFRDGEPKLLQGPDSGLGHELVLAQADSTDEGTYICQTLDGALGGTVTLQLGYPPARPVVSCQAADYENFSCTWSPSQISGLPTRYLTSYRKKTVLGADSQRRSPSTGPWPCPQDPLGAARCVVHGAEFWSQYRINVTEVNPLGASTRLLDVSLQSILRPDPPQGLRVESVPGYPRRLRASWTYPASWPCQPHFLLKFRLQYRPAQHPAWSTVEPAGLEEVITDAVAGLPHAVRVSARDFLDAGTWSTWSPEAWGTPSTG", "experiment": "ITC"}, "[5]": {"target": "T3, IL-11Rα_(D1-D3) (human, UniProt Q14626 23-319, N-linked glycans (N105, N172 seen in the structures))", "T3 construct": "Secreted with a honeybee-melittin signal peptide; also called C-terminally truncated form of IL-11Rα; not shown: His8, N-terminal, cleaved", "T3 sequence": "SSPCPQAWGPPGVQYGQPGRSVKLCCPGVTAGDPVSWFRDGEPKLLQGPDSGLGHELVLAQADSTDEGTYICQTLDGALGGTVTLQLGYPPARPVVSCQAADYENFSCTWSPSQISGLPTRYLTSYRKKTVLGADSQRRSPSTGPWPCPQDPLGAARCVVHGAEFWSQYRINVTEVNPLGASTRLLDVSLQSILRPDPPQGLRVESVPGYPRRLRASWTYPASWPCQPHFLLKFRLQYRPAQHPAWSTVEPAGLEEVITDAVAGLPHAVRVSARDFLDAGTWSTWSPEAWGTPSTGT", "experiment": "ITC; cytokine in the syringe (10-fold above IL-11Rα), IL-11Rα_(D1-D3) in the cell at 10 μM, TBS pH 8.5, 1:1 interaction model, n = 3", "details": "both partners purified"}, "[6]": {"target": "the molecule itself", "experiment": "cell-based or functional assay"}, "[7]": {"target": "T4, IL-11RαD1-D3 (C-terminally truncated form of human IL-11Rα, structured extracellular domains D1-D3) (human, UniProt Q14626 23-319)", "T4 construct": "interleukin 11 receptor subunit alpha, human, domains D1-D3 (C-terminally truncated extracellular region); Expressed with a honeybee-melittin signal peptide; not shown: His8, N-terminal, cleaved", "T4 sequence": "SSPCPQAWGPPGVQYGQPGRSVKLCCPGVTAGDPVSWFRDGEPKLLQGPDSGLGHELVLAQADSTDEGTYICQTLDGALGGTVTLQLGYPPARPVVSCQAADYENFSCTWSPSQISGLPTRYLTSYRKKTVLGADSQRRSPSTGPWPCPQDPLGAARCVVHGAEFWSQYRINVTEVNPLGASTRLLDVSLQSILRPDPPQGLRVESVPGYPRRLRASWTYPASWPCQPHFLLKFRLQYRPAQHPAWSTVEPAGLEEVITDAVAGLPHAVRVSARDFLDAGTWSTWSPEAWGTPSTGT", "experiment": "SPR; Biacore T200; biotinylated IL-11-avi constructs immobilised on a streptavidin chip; IL-11RαD1-D3 injected, two-fold dilutions from 500 nM; 25 °C (298 K); TBS pH 8.5 + 0.05% Tween; 30 μL/min; 1:1 kinetic model; n = 2", "details": "both partners purified"}}, "note": "Read-outs that look alike come from different tables or passages of the source.", "data": [{"molecule": "gp130_(D2-D3) (receptor)", "values": [{"measurement": "Kd", "setting": "[1]", "result": 60, "unit": "nM"}, {"measurement": "Kd", "setting": "[2]", "result": 130, "unit": "nM"}, {"measurement": "Kd", "setting": "[3]", "result": 380, "unit": "nM"}, {"measurement": "dH", "setting": "[3]", "result": 6.45, "unit": "kcal/mol"}]}, {"molecule": "gp130EC (receptor, human, UniProt P40189 23-619, looked up, N-linked glycans (N21, N61, N135 seen in the structures), Secreted with a honeybee-melittin signal peptide; D5-D6 are not in the deposited model 8DPT; also called complete extracellular domains of gp130; D1-D6 domains of gp130; not shown: His8, N-terminal, cleaved) ELLDPCGYISPESPVVQLHSNFTAVCVLKEKCMDYFHVNANYIVWKTNHFTIPKEQYTIINRTASSVTFTDIASLNIQLTCNILTFGQLEQNVYGITIISGLPPEKPKNLSCIVNEGKKMRCEWDGGRETHLETNFTLKSEWATHKFADCKAKRDTPTSCTVDYSTVYFVNIEVWVEAENALGKVTSDHINFDPVYKVKPNPPHNLSVINSEELSSILKLTWTNPSIKSVIILKYNIQYRTKDASTWSQIPPEDTASTRSSFTVQDLKPFTEYVFRIRCMKEDGKGYWSDWSEEASGITYEDRPSKAPSFWYKIDPSHTQGYRTVQLVWKTLPPFEANGKILDYEVTLTRWKSHLQNYTVNATKLTVNLTNDRYLATLTVRNLVGKSDAAVLTIPACDFQATHPVMDLKAFPKDNMLWVEWTTPRESVKKYILEWCVLSDKAPCITDWQQEDGTVHRTYLRGNLAESKCYLITVTPVYADGPGSPESIKAYLKQAPPSKGPTVRTKKVGKNEAVLEWDQLPVDVQNGFIRNYTIFYRTIIGNETAVNVDSSHTEYTLSSLTSDTLYMVRMAAYTDEGGKDGPEFTFTTPKFAQGEIE", "values": [{"measurement": "dH", "setting": "[3]; both partners purified", "result": -4.78, "unit": "kcal/mol"}]}, {"molecule": "IL-11_(Δ10/W147A) (ligand, human, interleukin 11 (IL-11), human, IL-11Δ10 with W147A; numbers count on: the mature protein; also called IL-11 W147A; W147A mutant; not shown: His6, N-terminal, cleaved) SPDPRAELDSTVLLTRSLLADTRQLAAQLRDKFPADGDHNLDSLPTLAMSAGALGALQLPGVLTRLRADLLSYLRHVQWLRRAGGSSLKTLEPELGTLQARLDRLLRRLQLLMSRLALPQPPPDPPAPPLAPPSSAAGGIRAAHAILGGLHLTLDWAVRGLLLLKTRL", "values": [{"measurement": "Kd", "setting": "[4]", "result": 10.4, "unit": "nM"}, {"measurement": "Kd", "setting": "[5]", "result": 10, "unit": "nM"}]}, {"molecule": "IL-11_(Δ10/W147A)/IL-11Rα_(D1-D3)/gp130_(D1-D3) trimer (complex, human) chain 1: SPDPRAELDSTVLLTRSLLADTRQLAAQLRDKFPADGDHNLDSLPTLAMSAGALGALQLPGVLTRLRADLLSYLRHVQWLRRAGGSSLKTLEPELGTLQARLDRLLRRLQLLMSRLALPQPPPDPPAPPLAPPSSAAGGIRAAHAILGGLHLTLDWAVRGLLLLKTRL chain 2: SSPCPQAWGPPGVQYGQPGRSVKLCCPGVTAGDPVSWFRDGEPKLLQGPDSGLGHELVLAQADSTDEGTYICQTLDGALGGTVTLQLGYPPARPVVSCQAADYENFSCTWSPSQISGLPTRYLTSYRKKTVLGADSQRRSPSTGPWPCPQDPLGAARCVVHGAEFWSQYRINVTEVNPLGASTRLLDVSLQSILRPDPPQGLRVESVPGYPRRLRASWTYPASWPCQPHFLLKFRLQYRPAQHPAWSTVEPAGLEEVITDAVAGLPHAVRVSARDFLDAGTWSTWSPEAWGTPSTGT chain 3: GELLDPCGYISPESPVVQLHSNFTAVCVLKEKCMDYFHVNANYIVWKTNHFTIPKEQYTIINRTASSVTFTDIASLNIQLTCNILTFGQLEQNVYGITIISGLPPEKPKNLSCIVNEGKKMRCEWDGGRETHLETNFTLKSEWATHKFADCKAKRDTPTSCTVDYSTVYFVNIEVWVEAENALGKVTSDHINFDPVYKVKPNPPHNLSVINSEELSSILKLTWTNPSIKSVIILKYNIQYRTKDASTWSQIPPEDTASTRSSFTVQDLKPFTEYVFRIRCMKEDGKGYWSDWSEEASGITYEDR", "values": [{"measurement": "EC50 of STAT3 activation (pSTAT3, flow cytometry) by IL-11_(Δ10/W147A) in Ba/F3 cells stably expressing human gp130 and IL-11Rα", "setting": "[6]", "result": 610, "unit": "pM"}]}, {"molecule": "biotinylated IL-11Δ10-avi (ligand, human, biotin on the C-terminal avitag, interleukin 11, human, N-terminally truncated form (Δ10), as Dm1; numbers count on: the mature protein; also called IL11Δ10 - Avitag; source: E. coli BL21(DE3), biotinylated in the cells, purified as IL-11Δ10; not shown: avitag, C-terminal, kept; His6, N-terminal, cleaved) SPDPRAELDSTVLLTRSLLADTRQLAAQLRDKFPADGDHNLDSLPTLAMSAGALGALQLPGVLTRLRADLLSYLRHVQWLRRAGGSSLKTLEPELGTLQARLDRLLRRLQLLMSRLALPQPPPDPPAPPLAPPSSAWGGIRAAHAILGGLHLTLDWAVRGLLLLKTRL", "values": [{"measurement": "Kd", "setting": "[7]", "result": 78, "unit": "nM"}, {"measurement": "kon", "setting": "[7]", "result": "1.4e+06", "unit": "M⁻¹ s⁻¹"}]}]}
